Laboratory results: patent US20230374078A1

Target: variant of repaired and stabilized Du422 construct (HIV161818) with the additional K655I substitution (HIV-1 clade C strain Du422)
Assay: assay not named in the sentence (data not shown); trimer yield by AlphaLISA elsewhere

## mAb PGT145 (antibody)
  trimer yield (PGT145 AlphaLISA signal), factor over the variant of SEQ ID NO: 25 without K655I: 1.3 fold
